Patent US20190248902A1 (published 2019)
Changes are numbered by the printed parent chain.

T1: human ASGR-1 (human, UniProt P07306 1-291)
T1 construct: Stably expressed on CHO-S cells (CHO-S:huASGR-1); The method text says human or mouse ASGR-1 cells were used; also called huASGR-1; hASGR-1
T1 sequence: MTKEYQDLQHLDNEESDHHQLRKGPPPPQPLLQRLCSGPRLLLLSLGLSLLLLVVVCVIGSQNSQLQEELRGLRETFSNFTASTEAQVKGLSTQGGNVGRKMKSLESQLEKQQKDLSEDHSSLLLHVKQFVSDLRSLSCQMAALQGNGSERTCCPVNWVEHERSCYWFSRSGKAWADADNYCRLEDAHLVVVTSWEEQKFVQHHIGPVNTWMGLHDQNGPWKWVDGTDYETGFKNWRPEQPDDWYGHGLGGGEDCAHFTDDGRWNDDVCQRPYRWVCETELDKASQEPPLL

B1: 48B12 (antibody, V domains shown)
VH: EVQLLESGGGLVQPGGSLRLSCAASGFTFSSYAMNWVRQAPGKGLEWVSAISGRGGNTFYADSVKGRFTISRDNSKNTLYLQMNSLRAEDTAVYYCAKRETYNWNYEGFDYWGQGTLVTVSS
VL: SYELTQPPSVSVSPGQTARITCSGDALPKKYAYWYQQKSGQAPVLVIYEDSKRPSGIPERFSGSSSGTMATLTISGAQVEDEADYYCNSTDSSGNHVVFGGGTKLTVL
B2: 56E5 (antibody, V domains shown)
VH: QVQLVQSGAEVKKPGASVKVSCQASGYTFTGYHMHWVRQAPGQGLEWMGWINPNNNATNYAQKFQGRVTMTRDTSISTAYMELRRLRSDDTAVYHCARDGTSSFDYWGQGTLVTVSS
VL: DIQMTQSPSSVSASVGDRVTITCRASQGIRKWLAWYQQKPGKAPKLLIYAASSLQSGVPSRFSGSGSGTDFTLTISSLQPEDFATYYCQQANSFPFTFGPGTKVDIK
B3: 72G9 (antibody, V domains shown)
VH: EVQLVESGGGLVKPGGSLRLSCAASGFTFSSYSMNWVRQAPGKGLEWVSSISGSSSYIYYADSVKGRFTISRDNAKNSLYLQMNSLRAEDTAVYFCARGGSRGFDPWGQGTLVTVSS
VL: B2 VL with V11L, G28S, R30T, K31S, W32Y, A34N, A50T, A91S, N92H
B4: 75G3 (antibody, V domains shown)
VH: QVQLQQWGAGLLKPSETLSLTCAVYGGSLSGSYWSWIRQPPGKGLEWIGEINLSGSTNYNPSLKSRVTISVDTSKSQFSLTLRSVTAADTAVYYCARDYGGLDYWGQGTLVTVSS
VL: EIVLTQSPGTLSLSPGERATLSCRARQNVDSSYLAWYQQKPGQAPRLLIYGASSRATGIPDRFSGSGSGTDFTLTISRLEPEDFAVFYCQQYERSPWTFGQGTKVEIK
B5: 54E9 (antibody, V domains shown)
VH: QVQLVQSGAEVKKPGASVKVSCKASGYTFNSYGISWVRLAPGQGLEWMGWISAYNGNTKNAQKLQGRVTMTTDTSTSTAYMELRSLRSDDTAVYYCARHDFWSGYYKGMDVWGQGTTVTVSS
VL: not shown
B6: 184E7 (antibody, V domains shown)
VH: QVQLVQSGAEVKTPGASVKVSCRASGYTFTSYNMHWVRQVPGQGLEWMGWINPNNGGSNYTQKFQGRVTMTRDTSISTAYMELSRLRSDDTAVYYCARKFGDWGQGTLVTVSS
VL: DIQMTQSPSSRSASIGERVTITCRASQGISNYLAWIQQKPGTAPKSLIYAASSLQSGVSSRFSGSGFGTDFTITISSVQREDFATYYCQQYNGYPFTFGHGTKVDIK
B7: 194C10 (antibody, V domains shown)
VH: QVQLQQWGAGLLKPSETLSLTCAVSGGSFRYYYWSWIRQPPGKGLEWFGEINHSGSTNYNPSLKSRVTISIDTSKNQFSLKLRSVTAADTAVYYCARDYGAFDIWGQGTMVTVSS
VL: EIVLTQSPGTLSLSPGERATLSCRASPSVNSGYLAWYQQKPGQTPRLLIFGASSRATGIPDRFSASGSGADFTLTISRLEPEDFAVYFCQQYESSPWTFGQGTKVEIK
B8: 29H8 (antibody, V domains shown)
VH: QVQLVQSGAEVQKPGASVKVSCKASGYTFTNYDINWVRQATGQGLEWMGWMNPNSGNTGYAQRFQGRVTMTRNTSISAAYMELSSLRSEDTAVYYCASSSGWYYFDYWGQGTLVTVSS
VL: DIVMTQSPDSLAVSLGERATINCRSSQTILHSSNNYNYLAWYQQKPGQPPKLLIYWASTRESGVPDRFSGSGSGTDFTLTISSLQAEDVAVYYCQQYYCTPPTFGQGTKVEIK
B9: 176H4 (antibody, V domains shown)
VH: QVQLVESGGGVVQPGRSLRLSCAASGFTFSSYGMHWVRQAPGKGLEWVAIIWYDGSYKYYADSVKGRFTISRDNSKNTLYLQMSSLRAEDTAVYYCARDAHDFWSGYFAYWGQGALVTVSS
VL: DIVMTQTPLSLSVTPGQPASISCKSSQSLLHGDGKTYLYWYLQKPGQPPQLLIYEVSNRFSGVPDRFSGSGSGTDFTLKISRVEAEDVGIYYCMQSIQIPWTFGQGTRVEIK
B10: 190F8 (antibody, V domains shown)
VH: QVQLVESGGGVVQPGRSLRLSCAASGFTFSTYGMHWVRQAPGKGLEWVAVIWYDGSNKNYADSVKGRFTISRDNSKNTLYLQMNSLRAEDTAVYYCARDQGVGYDGLDVWGQGTTVTVSS
VL: DIQMTQSPSSLSASVGDRVTITCRTSQGIGNYLAWFQQKPGKAPKSLLYKASSLQSGVPSKFSGSGSGTDFTLTISSLQPEDFATYYCQQYMTYPLTFGGGTKVEIK
B11: 197G3 (antibody, V domains shown)
VH: B10 VH with A23V, T31S, Y32H, Q100P, G101S, L107M
VL: DIQMTQSPSSLSASVGDRVTITCRASQGIGNHLAWFQQKPGKAPKSLIYAASSLQSGVPSKFSGSRSGTDFSLTISSLQPEDFATYYCQQYSNYPVTFGPGTKVDIK
B12: 194C1 (antibody, V domains shown)
VH: B10 VH with T31S, K58E, N59H, D99N, Q100R, D105Y
VL: B10 VL with T25A, G30S, L48I, K50A, Q89L, Q90H, M92L
B13: 198G3 (antibody, V domains shown)
VH: B10 VH with R19K, S56T, Y80C
VL: B10 VL with T5A, N31K, S56G
B14: 191G1 (antibody, V domains shown)
VH: B10 VH with T31S, K58E, N59H, Q100R, D105Y
VL: B10 VL with T25A, G30S, L48I, K50A, Q90H, M92L
B15: 191G10 (antibody, V domains shown)
VH: B10 VH with T31S
VL: B10 VL with N31K, A51V
B16: 198D2 (antibody, V domains shown)
VH: QVQLVESGGGVVQPGRSLRLSCAASGFTFRSYGMHWVRQAPGKGLEWVAVIIYDGSYKYYADSVKGRFTISRDNSKNTLYLQMNSLRAEDTAVYYCARTYSGGMDVWGQGTTVTVSS
VL: QSVLTQPPSVSAAPGQKVTISCSGSSSNIGSNYVSWYQQLPGTAPKVLIYDNNKRPSGIPDRFSGSKSGTSATLGITGLQTGDEADYYCGTWDSRLNVGVFGGGTKLTVL
B17: 193E7 (antibody, V domains shown)
VH: QVQLQQWGAGLLKPSETLSLTCAVYGGSFSGYFWTWIRQPPGKGLEWIGEINHSGSTNYNPSLKSRVTISVDTSKNQFSLKLSSVTAADTAVYYCARDYGADYWGQGTLVAVSA
VL: DIQMTQSPSSLSASVGDRVTITCRASQGIRNDLGWYQQKPGKAPKRLIYSASSLQRGVPSRFSGSGSGTEFTLTISSLQPEDFATYYCLQHKRYPLTFGGGTKVEIK
B18: 194A4 (antibody, V domains shown)
VH: QVQLVQSGTEVKKPGASLKVSCKASGYTFTVYYLNWVRQAPGQGLEWMGWINPNSGGTNYAQKFQGRVTMTRDTSISTAYMELSRLRSDDTAVYYCARGYDILTGWGQGTLVTVSS
VL: EIVLTQSPGTLSLSPGERATLSCRASRGVSNIYLAWYQQKPGQAPRLLIYGASNRATGIPDRFSGSGSGTDFTLTISRLEPEDFAVYYCQHNDYSMFTFGPGTKVDIK

Target: T1, human ASGR-1
Experiment: FACS ligand blocking on CHO-S ASGR-1 cells; competitor biotinylated asialofetuin
Experimental: (§1) All ASGR-1 antibodies that bound either human or mouse ASGR-1 stable CHO—S cells were then tested for ligand blocking using both a protein ligand and a synthetic sugar ligand. The method in brief is as follows: first, 20 ul of either CHO-Shuman or mouse ASGR-1 cells were added to wells of a 384 well plate (30 k cells/well) followed by spin and discarding the supernatant. Second, 10 ul of the antibodies (either purified from hybridoma supernatants or made recombinantly) were added in duplicate to the cells in a dilution series (200 nM top concentration, 1:2 serial dilution, 11 point curve) and were incubated for 30 min at 4 C. […] After 30 min incubation at 4C, the plate was spun and washed twice with FACS buffer+1 mM CaCl2 followed by the detection streptavidin-AF647 at 1:1000 dilution. After 30 min at 4C, the cells were spun and washed once and then 60 ul PI added at 1:1000 dilution and the plates delivered to a core flow cytometry facility. The plates were read and processed similarly to the cell binding method except the signal now represents an inhibition curve and typically decreases a function of increasing antibody concentration. IC50 nM potency and % Inhibition were reported. […] Differences in the ability of antibodies to block these two ligands could occur as a result of differences in, for example, avidity stemming from differences in the number and/or orientation of the ASGR binding terminal sugar residues of each ligand, steric hindrance between antibody and each ligand, and/or changes in the conformation of ASGR induced by antibody binding that selectively alters the binding of each ligand.

| % Inhibition [%] | IC50 [nM] | Binder |
| --- | --- | --- |
| 99 | 19 | B1 |
| 99 | 23 | B2 |
| 20 | 53 | B3 |
| 99 | 29 | B4 |
| 75 | 50 | B5 |
| 99 | 23 | B6 |
| 99 | – | B7 |
| 99 | 7 | B8 |
| 99 | – | B9 |
| 98 | 34 | B10 |
| 90 | 29 | B11 |
| 99 | 34 | B12 |
| 99 | 26 | B13 |
| 99 | 24 | B14 |
| 99 | 27 | B15 |
| 99 | 22 | B16 |
| 99 | 30 | B17 |
| 99 | 57 | B18 |

Target: T1, human ASGR-1
Experiment: FACS ligand blocking on CHO-S ASGR-1 cells; labelled ligand biotin-GalNAc-PAA (synthetic sugar)
Experimental: as §1

| % Inhibition [%] | IC50 [nM] | Binder |
| --- | --- | --- |
| 94 | 86 | B1 |
| 99 | 45 | B2 |
| 20 | 24 | B3 |
| 99 | 115 | B4 |
| 19 | 100 | B5 |
| 99 | 10 | B6 |
| 99 | – | B7 |
| 99 | 17 | B8 |
| 79 | – | B9 |
| 83 | 44 | B10 |
| 74 | 15 | B11 |
| 89 | 72 | B12 |
| 81 | 5 | B13 |
| 78 | 62 | B14 |
| 99 | 56 | B15 |
| 99 | 55 | B16 |
| 60 | 33 | B17 |
| 60 | 48 | B18 |
